{"source": "patent US6462178B1", "about": "“G protein” (Yong Hou Wong, priority 1999, dated 2002)", "molecules": {"B1": {"name": "16z44 chimera (protein)", "chain": "MARSLTWRCCPWCLTEDEKAAARVDQEINRILLEQKKQDRGELKLLLLGPGESGKSTFIKQMRIIHGAGYSEEERKGFRPLVYQNIFVSMRAMIEAMERLQIPFSRPESKHHASLVMSQDPYKVTTFEKRYAAAMQWLWRDAGIRACYERRREFHLLDSAVYYLSHLERITEEGYVPTAQDVLRSRMPTTGINEYCFSVQKTNLRIVDVGGQKSERKKWIHCFENVIALIYLASLSEYDQCLEENNQENRMKESLALFGTILELPWFKSTSVILFLNKTDILEEKIPTSHLATYFPSFQGPKQDAEAAKRFILDMYTRMYTGCVDGPEGSNRNKETKEIYSHFTCATDTSNIQFVFDAVTDVIIQNNLKYIGLC"}}, "key": {"[1]": {"molecular_target": "T1, dopamine D2 receptor (Homo sapiens, UniProt P14416)", "T1 sequence (P14416 whole entry)": "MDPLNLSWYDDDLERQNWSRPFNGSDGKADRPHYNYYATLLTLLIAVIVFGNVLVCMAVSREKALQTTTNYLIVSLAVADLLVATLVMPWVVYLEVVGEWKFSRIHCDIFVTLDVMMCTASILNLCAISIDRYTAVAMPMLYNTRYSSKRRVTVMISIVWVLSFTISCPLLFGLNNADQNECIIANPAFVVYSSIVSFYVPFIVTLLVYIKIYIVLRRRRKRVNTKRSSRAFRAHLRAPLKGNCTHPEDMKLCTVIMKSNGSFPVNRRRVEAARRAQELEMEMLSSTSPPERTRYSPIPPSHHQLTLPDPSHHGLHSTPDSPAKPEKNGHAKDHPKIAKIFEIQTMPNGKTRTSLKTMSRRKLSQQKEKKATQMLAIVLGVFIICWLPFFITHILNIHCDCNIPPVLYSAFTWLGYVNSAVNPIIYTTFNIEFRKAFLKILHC", "settings": "COS-7, receptor + Gα16, 10 μM dopamine, cited from earlier work"}, "[2]": {"molecular_target": "T1, dopamine D2 receptor", "T1 sequence (P14416 whole entry)": "as above", "settings": "10 μM dopamine; for IP Formation % Res.: relative to basal"}, "[3]": {"molecular_target": "muscarinic m1 receptor"}, "[4]": {"molecular_target": "5HT1c receptor"}, "[5]": {"molecular_target": "bombesin receptor"}, "[6]": {"molecular_target": "dopamine D1 receptor"}, "[7]": {"molecular_target": "vasopressin V2 receptor"}, "[8]": {"molecular_target": "complement C5a receptor", "sequence (P21730 whole entry)": "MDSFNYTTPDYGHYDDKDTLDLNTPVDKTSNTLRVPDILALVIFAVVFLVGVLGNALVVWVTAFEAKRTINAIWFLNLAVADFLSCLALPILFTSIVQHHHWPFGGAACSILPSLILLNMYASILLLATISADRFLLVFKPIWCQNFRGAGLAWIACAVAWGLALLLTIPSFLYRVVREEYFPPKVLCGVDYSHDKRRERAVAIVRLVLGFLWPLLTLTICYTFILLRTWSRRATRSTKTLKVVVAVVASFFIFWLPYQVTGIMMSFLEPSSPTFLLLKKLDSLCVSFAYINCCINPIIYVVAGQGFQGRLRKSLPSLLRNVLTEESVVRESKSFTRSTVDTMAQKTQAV"}, "[9]": {"molecular_target": "adenosine A1 receptor"}, "[10]": {"molecular_target": "formyl peptide (fMLP) receptor"}, "[11]": {"molecular_target": "opioid receptor-like (ORL1) receptor"}, "[12]": {"molecular_target": "melatonin Mel1a receptor"}, "[13]": {"molecular_target": "melatonin Mel1c receptor"}, "[14]": {"molecular_target": "κ-opioid receptor"}, "[15]": {"molecular_target": "α2-adrenergic receptor"}, "[16]": {"molecular_target": "β2-adrenergic receptor"}, "[17]": {"molecular_target": "T2, melatonin Mel1b receptor", "T2 sequence (P49286 whole entry, species assumed, looked up)": "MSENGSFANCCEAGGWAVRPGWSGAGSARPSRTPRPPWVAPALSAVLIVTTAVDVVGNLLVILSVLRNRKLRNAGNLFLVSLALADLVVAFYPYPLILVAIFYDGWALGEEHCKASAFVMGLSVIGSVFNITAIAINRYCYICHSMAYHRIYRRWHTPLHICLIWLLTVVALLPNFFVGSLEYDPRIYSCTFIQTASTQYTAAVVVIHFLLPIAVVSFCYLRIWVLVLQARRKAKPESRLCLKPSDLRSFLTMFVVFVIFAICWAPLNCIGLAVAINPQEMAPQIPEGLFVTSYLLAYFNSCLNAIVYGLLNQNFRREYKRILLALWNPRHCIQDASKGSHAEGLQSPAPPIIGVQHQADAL"}, "[18]": {"molecular_target": "dopamine D2 receptor"}, "[19]": {"molecular_target": "µ-opioid receptor"}, "[20]": {"molecular_target": "δ-opioid receptor"}, "[21]": {"molecular_target": "melatonin Mel1c receptor", "remark": "listed apart in the source"}, "[22]": {"settings": "COS-7, receptor + 16z25 chimera"}, "[23]": {"settings": "COS-7, receptor + 16z44 chimera"}}, "note": "Where two headings read alike, the source gives them in different places.", "data": [{"molecule": "NCCc1ccc(O)c(O)c1", "note": "[dopamine]", "values": [{"measurement": "IP Formation Agonist", "setting": "[1]", "result": "24.0 ± 2.3"}, {"measurement": "IP Formation % Res.", "setting": "[1]; relative to basal", "result": 207, "unit": "a %"}, {"measurement": "IP Formation Agonist", "setting": "[2]; [22]", "result": "40.1 ± 0.9"}, {"measurement": "IP Formation % Res.", "setting": "[2]; [22]", "result": 324, "unit": "%"}, {"measurement": "IP Formation Agonist", "setting": "[2]; [23]", "result": "84.5 ± 6.2"}, {"measurement": "IP Formation % Res.", "setting": "[2]; [23]", "result": 302, "unit": "%"}]}, {"molecule": "B1", "values": [{"measurement": "IP formation, enhancement of the agonist response by coexpressed 16z44", "setting": "[3]", "result": 34, "unit": "%"}, {"measurement": "IP formation, enhancement of the agonist response by coexpressed 16z44", "setting": "[4]", "result": 43, "unit": "%"}, {"measurement": "IP formation, enhancement of the agonist response by coexpressed 16z44", "setting": "[5]", "result": 57, "unit": "%"}, {"measurement": "IP formation (PLC stimulation), % Res.", "setting": "[6]", "result": 287, "unit": "% Res."}, {"measurement": "IP formation (PLC stimulation), % Res.", "setting": "[7]", "result": 321, "unit": "% Res."}, {"measurement": "IP formation (PLC stimulation), % Res.", "setting": "[8]", "result": 457, "unit": "% Res."}, {"measurement": "IP formation (PLC stimulation), % Res.", "setting": "[9]", "result": 188, "unit": "% Res."}, {"measurement": "IP formation (PLC stimulation), % Res.", "setting": "[10]", "result": 428, "unit": "% Res."}, {"measurement": "IP formation (PLC stimulation), % Res.", "setting": "[11]", "result": 380, "unit": "% Res."}, {"measurement": "IP formation (PLC stimulation), % Res.", "setting": "[12]", "result": 171, "unit": "% Res."}, {"measurement": "IP formation (PLC stimulation), % Res.", "setting": "[13]", "result": 307, "unit": "% Res."}, {"measurement": "IP formation (PLC stimulation), % Res.", "setting": "[14]", "result": 257, "unit": "% Res."}, {"measurement": "IP formation (PLC stimulation), % Res.", "setting": "[15]", "result": 297, "unit": "% Res."}, {"measurement": "IP formation (PLC stimulation), % Res.", "setting": "[16]", "result": 307, "unit": "% Res."}, {"measurement": "IP formation (PLC stimulation), % Res.", "setting": "[17]", "result": 177, "unit": "% Res."}, {"measurement": "IP formation (PLC stimulation), % Res.", "setting": "[18]", "result": 302, "unit": "% Res."}, {"measurement": "IP formation (PLC stimulation), % Res.", "setting": "[19]", "result": 269, "unit": "% Res."}, {"measurement": "IP formation (PLC stimulation), % Res.", "setting": "[20]", "result": 548, "unit": "% Res."}, {"measurement": "EC50 of 2-iodomelatonin for IP formation", "setting": "[21]", "result": 400, "unit": "pM"}]}]}
